Results published in patent publication US20100104603A1 (published 2010).
Ends that are not written are not given here.

Assays:
[1] = target: T1, Staphylococcal superantigen-like protein 5 (SSL5) of S. aureus strain NTCT 8325, recombinant (Staphylococcus aureus strain NTCT 8325, UniProt A0A0H3K6Z6 31-234)
T1 sequence: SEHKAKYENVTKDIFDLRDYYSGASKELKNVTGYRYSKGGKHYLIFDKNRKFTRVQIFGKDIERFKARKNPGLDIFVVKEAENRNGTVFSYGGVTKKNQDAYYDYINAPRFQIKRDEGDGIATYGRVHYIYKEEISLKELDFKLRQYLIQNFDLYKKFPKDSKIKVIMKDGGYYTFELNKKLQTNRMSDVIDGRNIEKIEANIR

[2] = target: T2, IL-8 (UniProt P10145 28-99); assay: ELISA: IL-8-coated wells, PSGL-1/Ig without SSL5
T2 construct: also called biotin-labeled IL-8
T2 sequence: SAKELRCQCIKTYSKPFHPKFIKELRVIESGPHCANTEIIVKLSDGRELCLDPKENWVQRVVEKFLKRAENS

B1: recombinant human PSGL-1-Fc construct (PSGL-1/Ig fusion protein) (Fc fusion)
chain: QATEYEYLDYDFLPETEPPEMLRNSTDTTPLTGPGTPESTTVEPAAR
modifications: ends and bridges not checked; also: fused to Ig Fc part
notes: also called rPSGL/Ig; not shown: Ig/Fc part
Kd [1]: 820 nM | binding result [2]: no binding (tested: 1 µg/ml)
